Measurements: patent publication US20240124615A1 (HEFEI TG IMMUNOPHARMA, published 2024)

Biological target: T1, Human B7H6 (ACRO biosystems, cat. No. B76-H52H8) (human, UniProt Q68D85 25-262)
T1 construct: Bought antigen; also called B7H6 antigen; human B7H6 protein
T1 sequence (looked up): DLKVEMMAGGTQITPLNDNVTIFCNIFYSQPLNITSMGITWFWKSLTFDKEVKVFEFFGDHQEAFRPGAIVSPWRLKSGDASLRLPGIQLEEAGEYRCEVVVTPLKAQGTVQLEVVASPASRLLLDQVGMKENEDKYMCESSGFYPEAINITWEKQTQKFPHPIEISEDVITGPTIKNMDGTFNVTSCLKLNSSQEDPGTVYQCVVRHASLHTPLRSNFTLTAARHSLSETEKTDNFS
Assay: ELISA, B7H6 coated, HRP anti-human IgG detection
Protocol: Human B7H6 (ACRO biosystems, cat. No. B76-H52H8) and human CD3 antigen (ACRO biosystems, cat. No. CDD-H52W1) were diluted to 2 μg/mL with coating buffer (35 mM NaHCO₃, 15 mM Na₂CO₃, pH 9.6), respectively. 100 μL of the diluted solution was added to each well of an ELISA plate at 4° C. overnight, and then washes with PBST (0.05% Tween 20-PBS, pH 7.2) 3 times. 300 μL of blocking buffer (1% BSA, 0.05% Tween20-PBS, pH 7.2) was added to the plate and allowed to stand at room temperature for 2 h, followed by washing with PBST three times. The corresponding bispecific antibody was added to each well and incubated at room temperature for 1 h, followed by washing with PBST three times. 100 μL of HRP-rabbit anti human IgG secondary antibody (Boster, cat. No. BA1070) diluted in blocking buffer was added to each well and incubated for 1 h at room temperature, followed by washing with PBST three times. TMB was added into each well. The plate was kept away from light at room temperature for 2-5 min, the reaction was stopped by adding 2 M sulfuric acid in each well, and finally OD450 values were read with microplate reader.

B1: CD3xB7H6-2 bispecific antibody (bispecific antibody, human IgG1, L234A L235A)
chain 1: not shown
chain 2: DIVLTQSPDSLAVSLGERATINCKASQSVDYDGDSYMNWYQQKPGQPPKLLIYAASTLHSGVPDRFSGSGSGTDFTLTISSLQAEDVAVYYCQQSKEDPRTFGQGTKLEIKGGGGSGGGGSGGGGSEVQLVQSGAEVKKPGASVKVSCKASGYTFTDYNMDWVRQAPGQGLEWIGDINPNNGGTLYNQKFRGRVTLTVDTSISTAYMELSRLRSDDTAVYYCARSEVFYGNYADYWGQGTTVTVSSEPKSCDKTHTCPPCPAPEAAGGPSVFLFPPKPKDTLMISRTPEVTCVVVDVSHEDPEVKFNWYVDGVEVHNAKTKPREEQYNSTYRVVSVLTVLHQDWLNGKEYKCKVSNKALPAPIEKTISKAKGQPREPQVCTLPPSRDELTKNQVSLSCAVKGFYPSDIAVEWESNGQPENNYKTTPPVLDSDGSFFLVSKLTVDKSRWQQGNVFSCSVMHEALHNHYTQKSLSLSPGK
notes: Heterodimer of two scFv-Fc units, knob-into-hole human IgG1 Fc; name formed by analogy with CD3xB7H6-14
- binding result: binds

B2: CD3xB7H6-1 bispecific antibody (bispecific antibody, human IgG1, L234A L235A)
chain 1: not shown
chain 2: DIVLTQSPDSLAVSLGERATINCKASQSVDYDGDSYMNWYQQKPGQPPKLLIYAASTLHSGVPDRFSGSGSGTDFTLTISSLQAEDVAVYYCQQSKEDPRTFGQGTKLEIKGGGGSGGGGSGGGGSEVQLVQSGAEVKKPGASVKVSCKASGYTFTDYNMDWVRQAPGQGLEWMGDINPNNGGTLYNQKFRGRVTMTVDTSISTAYMELSRLRSDDTAVYYCARSEVFYGNYADYWGQGTTVTVSSEPKSCDKTHTCPPCPAPEAAGGPSVFLFPPKPKDTLMISRTPEVTCVVVDVSHEDPEVKFNWYVDGVEVHNAKTKPREEQYNSTYRVVSVLTVLHQDWLNGKEYKCKVSNKALPAPIEKTISKAKGQPREPQVCTLPPSRDELTKNQVSLSCAVKGFYPSDIAVEWESNGQPENNYKTTPPVLDSDGSFFLVSKLTVDKSRWQQGNVFSCSVMHEALHNHYTQKSLSLSPGK
notes: Heterodimer of two scFv-Fc monovalent units, knob-into-hole human IgG1 Fc; name formed by analogy with the printed CD3xB7H6-14
- binding result: binds

B3: CD3xB7H6-6 bispecific antibody (bispecific antibody, human IgG1, L234A L235A)
chain 1: not shown
chain 2: DIVLTQSPDSLAVSLGERATINCKASQSVDYDGDSYMNWYQQKPGQPPKLLIYAASTLHSGIPDRFSGSGSGTDFTLTISSLQAEDVAVYYCQQSKEDPRTFGQGTKLEIKGGGGSGGGGSGGGGSEVQLVQSGAEVKKPGASVKVSCKASGYTFTDYNMDWVRQAPGQGLEWIGDINPNNGGTLYNQKFRGRVTLTVDTSISTAYMELSRLRSDDTAVYYCARSEVFYGNYADYWGQGTTVTVSSEPKSCDKTHTCPPCPAPEAAGGPSVFLFPPKPKDTLMISRTPEVTCVVVDVSHEDPEVKFNWYVDGVEVHNAKTKPREEQYNSTYRVVSVLTVLHQDWLNGKEYKCKVSNKALPAPIEKTISKAKGQPREPQVCTLPPSRDELTKNQVSLSCAVKGFYPSDIAVEWESNGQPENNYKTTPPVLDSDGSFFLVSKLTVDKSRWQQGNVFSCSVMHEALHNHYTQKSLSLSPGK
notes: as for B1
- binding result: binds

B4: CD3xB7H6-7 bispecific antibody (bispecific antibody, human IgG1, L234A L235A)
chain 1: not shown
chain 2: DIVLTQSPDSLAVSLGERATINCKASQSVDYDGDSYMNWYQQKPGQPPKLLIYAASTLHSGIPDRFSGSGSGTDFTLTISSLQAEDVAVYYCQQSKEDPRTFGQGTKLEIKGGGGSGGGGSGGGGSEVQLVQSGAEVKKPGASVKVSCKASGYTFTDYNMDWVRQAPGQGLEWIGDINPNNGGTLYNQKFRGRVTLTVDKSISTAYMELSRLRSDDTAVYYCARSEVFYGNYADYWGQGTTVTVSSEPKSCDKTHTCPPCPAPEAAGGPSVFLFPPKPKDTLMISRTPEVTCVVVDVSHEDPEVKFNWYVDGVEVHNAKTKPREEQYNSTYRVVSVLTVLHQDWLNGKEYKCKVSNKALPAPIEKTISKAKGQPREPQVCTLPPSRDELTKNQVSLSCAVKGFYPSDIAVEWESNGQPENNYKTTPPVLDSDGSFFLVSKLTVDKSRWQQGNVFSCSVMHEALHNHYTQKSLSLSPGK
notes: as for B1
- binding result: binds

B5: CD3xB7H6-4 bispecific antibody (bispecific antibody, human IgG1, L234A L235A)
chain 1: not shown
chain 2: DIVLTQSPDSLAVSLGERATINCKASQSVDYDGDSYMNWYQQKPGQPPKLLIYAASTLHSGVPDRFSGSGSGTDFTLTISSLQAEDVAVYYCQQSKEDPRTFGQGTKLEIKGGGGSGGGGSGGGGSEVQLVQSGAEVKKPGASVKVSCKASGYTFTDYNMDWVRQAPGKGLEWIGDINPNNGGTLYNQKFRGRVTLTVDKSISTAYMELSRLRSDDTAVYYCARSEVFYGNYADYWGQGTTVTVSSEPKSCDKTHTCPPCPAPEAAGGPSVFLFPPKPKDTLMISRTPEVTCVVVDVSHEDPEVKFNWYVDGVEVHNAKTKPREEQYNSTYRVVSVLTVLHQDWLNGKEYKCKVSNKALPAPIEKTISKAKGQPREPQVCTLPPSRDELTKNQVSLSCAVKGFYPSDIAVEWESNGQPENNYKTTPPVLDSDGSFFLVSKLTVDKSRWQQGNVFSCSVMHEALHNHYTQKSLSLSPGK
notes: as for B1
- binding result: binds

B6: CD3xB7H6-3 bispecific antibody (bispecific antibody, human IgG1, L234A L235A)
chain 1: not shown
chain 2: DIVLTQSPDSLAVSLGERATINCKASQSVDYDGDSYMNWYQQKPGQPPKLLIYAASTLHSGVPDRFSGSGSGTDFTLTISSLQAEDVAVYYCQQSKEDPRTFGQGTKLEIKGGGGSGGGGSGGGGSEVQLVQSGAEVKKPGASVKVSCKASGYTFTDYNMDWVRQAPGQGLEWIGDINPNNGGTLYNQKFRGRVTLTVDKSISTAYMELSRLRSDDTAVYYCARSEVFYGNYADYWGQGTTVTVSSEPKSCDKTHTCPPCPAPEAAGGPSVFLFPPKPKDTLMISRTPEVTCVVVDVSHEDPEVKFNWYVDGVEVHNAKTKPREEQYNSTYRVVSVLTVLHQDWLNGKEYKCKVSNKALPAPIEKTISKAKGQPREPQVCTLPPSRDELTKNQVSLSCAVKGFYPSDIAVEWESNGQPENNYKTTPPVLDSDGSFFLVSKLTVDKSRWQQGNVFSCSVMHEALHNHYTQKSLSLSPGK
notes: as for B1
- binding result: binds

B7: CD3xB7H6-5 bispecific antibody (bispecific antibody, human IgG1, L234A L235A)
chain 1: not shown
chain 2: DIVLTQSPDSLAVSLGERATINCKASQSVDYDGDSYMNWYQQKPGQPPKLLIYAASTLHSGIPDRFSGSGSGTDFTLTISSLQAEDVAVYYCQQSKEDPRTFGQGTKLEIKGGGGSGGGGSGGGGSEVQLVQSGAEVKKPGASVKVSCKASGYTFTDYNMDWVRQAPGQGLEWMGDINPNNGGTLYNQKFRGRVTMTVDTSISTAYMELSRLRSDDTAVYYCARSEVFYGNYADYWGQGTTVTVSSEPKSCDKTHTCPPCPAPEAAGGPSVFLFPPKPKDTLMISRTPEVTCVVVDVSHEDPEVKFNWYVDGVEVHNAKTKPREEQYNSTYRVVSVLTVLHQDWLNGKEYKCKVSNKALPAPIEKTISKAKGQPREPQVCTLPPSRDELTKNQVSLSCAVKGFYPSDIAVEWESNGQPENNYKTTPPVLDSDGSFFLVSKLTVDKSRWQQGNVFSCSVMHEALHNHYTQKSLSLSPGK
notes: as for B1
- binding result: binds

B8: CD3xB7H6-8 bispecific antibody (bispecific antibody, human IgG1, L234A L235A)
chain 1: not shown
chain 2: DIVLTQSPDSLAVSLGERATINCKASQSVDYDGDSYMNWYQQKPGQPPKLLIYAASTLHSGIPDRFSGSGSGTDFTLTISSLQAEDVAVYYCQQSKEDPRTFGQGTKLEIKGGGGSGGGGSGGGGSEVQLVQSGAEVKKPGASVKVSCKASGYTFTDYNMDWVRQAPGKGLEWIGDINPNNGGTLYNQKFRGRVTLTVDKSISTAYMELSRLRSDDTAVYYCARSEVFYGNYADYWGQGTTVTVSSEPKSCDKTHTCPPCPAPEAAGGPSVFLFPPKPKDTLMISRTPEVTCVVVDVSHEDPEVKFNWYVDGVEVHNAKTKPREEQYNSTYRVVSVLTVLHQDWLNGKEYKCKVSNKALPAPIEKTISKAKGQPREPQVCTLPPSRDELTKNQVSLSCAVKGFYPSDIAVEWESNGQPENNYKTTPPVLDSDGSFFLVSKLTVDKSRWQQGNVFSCSVMHEALHNHYTQKSLSLSPGK
notes: as for B1
- binding result: binds

B9: CD3xB7H6-10 bispecific antibody (bispecific antibody, human IgG1, L234A L235A)
chain 1: not shown
chain 2: DIVLTQTPLSLSVTPGQPASISCKASQSVDYDGDSYMNWYLQKPGQPPQLLIYAASTLHSGVPDRFSGSGSGTDFTLKISRVEAEDVGVYYCQQSKEDPRTFGQGTKLEIKGGGGSGGGGSGGGGSEVQLVQSGAEVKKPGASVKVSCKASGYTFTDYNMDWVRQAPGQGLEWIGDINPNNGGTLYNQKFRGRVTLTVDTSISTAYMELSRLRSDDTAVYYCARSEVFYGNYADYWGQGTTVTVSSEPKSCDKTHTCPPCPAPEAAGGPSVFLFPPKPKDTLMISRTPEVTCVVVDVSHEDPEVKFNWYVDGVEVHNAKTKPREEQYNSTYRVVSVLTVLHQDWLNGKEYKCKVSNKALPAPIEKTISKAKGQPREPQVCTLPPSRDELTKNQVSLSCAVKGFYPSDIAVEWESNGQPENNYKTTPPVLDSDGSFFLVSKLTVDKSRWQQGNVFSCSVMHEALHNHYTQKSLSLSPGK
notes: as for B1
- binding result: binds

B10: CD3xB7H6-9 bispecific antibody (bispecific antibody, human IgG1, L234A L235A)
chain 1: not shown
chain 2: DIVLTQTPLSLSVTPGQPASISCKASQSVDYDGDSYMNWYLQKPGQPPQLLIYAASTLHSGVPDRFSGSGSGTDFTLKISRVEAEDVGVYYCQQSKEDPRTFGQGTKLEIKGGGGSGGGGSGGGGSEVQLVQSGAEVKKPGASVKVSCKASGYTFTDYNMDWVRQAPGQGLEWMGDINPNNGGTLYNQKFRGRVTMTVDTSISTAYMELSRLRSDDTAVYYCARSEVFYGNYADYWGQGTTVTVSSEPKSCDKTHTCPPCPAPEAAGGPSVFLFPPKPKDTLMISRTPEVTCVVVDVSHEDPEVKFNWYVDGVEVHNAKTKPREEQYNSTYRVVSVLTVLHQDWLNGKEYKCKVSNKALPAPIEKTISKAKGQPREPQVCTLPPSRDELTKNQVSLSCAVKGFYPSDIAVEWESNGQPENNYKTTPPVLDSDGSFFLVSKLTVDKSRWQQGNVFSCSVMHEALHNHYTQKSLSLSPGK
notes: as for B1
- binding result: binds
